For the test, the target named is T1, EphB4 CF2 protein (ECD version with deleted globular domain, 6xHis tagged) (human, UniProt P54760 16-537).
T1 construct: The entry is the precursor
T1 sequence: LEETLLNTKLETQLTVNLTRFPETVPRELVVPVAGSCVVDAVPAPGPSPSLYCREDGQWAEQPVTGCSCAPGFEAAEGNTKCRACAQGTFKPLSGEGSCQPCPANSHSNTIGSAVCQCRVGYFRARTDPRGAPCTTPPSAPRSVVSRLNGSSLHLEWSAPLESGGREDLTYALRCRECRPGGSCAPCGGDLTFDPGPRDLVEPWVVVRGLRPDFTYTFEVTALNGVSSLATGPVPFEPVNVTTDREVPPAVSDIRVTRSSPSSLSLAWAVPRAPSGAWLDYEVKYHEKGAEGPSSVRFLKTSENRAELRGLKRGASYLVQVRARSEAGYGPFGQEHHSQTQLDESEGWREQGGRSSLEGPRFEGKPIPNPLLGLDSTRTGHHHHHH
The experiment in a line: Ephrin B2-AP binding to B4 proteins immobilized on Ni2+ resin or nitrocellulose membrane. The procedure: To confirm ability of the purified recombinant proteins to bind Ephrin B2, they were tested in an in vitro binding assay. As expected, GC, GCF1 and GCF2, but not CF2 are binding the cognate ligand Ephrin B2 as confirmed by interaction between Ephrin B2-alkaline phosphatase (Ephrin B2-AP) fusion protein with the B4 proteins immobilized on Ni²⁺ resin or on nitrocellulose membrane (FIG. 17).

B1: B2EC-AP reagent (protein fusion of Ephrin B2 ectodomain with placental alkaline phosphatase) (ligand, UniProt P52799 28-229, looked up)
chain: IVLEPIYWNSSNSKFLPGQGLVLYPQIGDKLDIICPKVDSKTVGQYEYYKVYMVDKDQADRCTIKKENTPLLNCAKPDQDIKFTIKFQEFSPNLWGLEFQKNKDYYIISTSNGSLEGLDNQEGGVCQTRAMKILMKVGQDASSAGSTRNKDPTRRPELEAGTNGRSSTTSPFVKPNPGSSTDGNSAGHSGNNILGSEVALFA
notes: extracellular domain; also called B2-AP; Ephrin B2-AP; not shown: placental alkaline phosphatase
For the molecule B1, the binding result was “no binding”.

Source of the values: US20060204512A1 (VASGENE THERAPEUTICS, published 2006).
